In the supplement of paper PMC12042874:
± gives the uncertainty stated by the source.

Test: amyloid nucleation score (Sup35N fusion, yeast selection) (log enrichment); library NNK3; higher = more nucleation; inactive = no reads after selection
Outline: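 On medium lacking adenine and uracil, psi-negative yeast expressing peptides of 20 random codons fused to Sup35N were grown 7 days at 30°C after a 24-hour induction with 100 μM copper sulfate. Illumina sequencing of input and output plasmid inserts gave the reads, and sequences under 100 input reads were excluded. The nucleation score is the DiMSum log enrichment of output over input reads, centred on the mode score of non-aggregating sequences.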

Row | Substance | amyloid nucleation score
1 | SPSEMIAFWFNSTFVTSASG | -0.46 ± 1.7
2 | SPYPITGLFWCFINWSHKVM | inactive
3 | SQCYCVYAGVVT | 0.034 ± 0.51
4 | SQSGELFSDMMVLLG | inactive
5 | SQTLYLGARVNRMRYVFSAC | inactive
6 | SQVGMSPYRSCSINKWCPGI | inactive
7 | SQVVDW | inactive
8 | SQWIGFIEGCGNWMGYLACV | inactive
9 | SREIYSMVMQSHLVQWGVIA | inactive
10 | SRELNYVVAWIL | inactive
11 | SRFDRVMQNDCCVYSCHIII | inactive
12 | SRFVYSSGY | inactive
13 | SRIAFKVDFASCRARMCGVE | inactive
14 | SRIGFPICLRRGYVNQDCNG | inactive
15 | SRIIVRN | inactive
16 | SRILGNRMAFTA | inactive
17 | SRISKMSELIYRLRYIVILV | inactive
18 | SRLMRKRISA | inactive
19 | SRMSGVVGIAKV | inactive
20 | SRPFICSPFQIWAFKFTPMN | inactive
21 | SRRVNFLPVVFQHMTWLVLV | inactive
22 | SRSFKRNLVSMVNLGVRDEM | inactive
23 | SRSLLEAWDHGTHAGLHVWS | inactive
24 | SRTFVRECKWGFVCRYKVWV | inactive

Row | Substance | amyloid nucleation score
25 | SRVISLFSGVCRGLRGYVNR | inactive
26 | SRWEKSFALICAS | inactive
27 | SRYRAEIDARYNFLRGFNAC | -0.449 ± 0.8
28 | SSALRMYVCSAWG | inactive
29 | SSANVDMPVDCDTRWTCW | inactive
30 | SSAPEQRF | inactive
31 | SSARRKNLRYEGVLRTEARV | inactive
32 | SSDECYSNHCIWCVKQ | 3.16 ± 0.061
33 | SSERSGRRRNWSVRSCLVGQ | inactive
34 | SSGAQQCILISSLVLNEDWL | -0.46 ± 0.76
35 | SSGHAGGYINYSCTFSAYRM | 0.786 ± 0.19
36 | SSGSFS | inactive
37 | SSHGSRGITVDT | inactive
38 | SSHVQRMMRLMVAN | inactive
39 | SSIVENGCNTERSPMIGCVS | -0.576 ± 0.88
40 | SSLFLDCGFGV | inactive
41 | SSLIGRVDRIMYVSARERTI | inactive
42 | SSLNSMIIIRFHTSKGHVCK | 1.32 ± 0.17
43 | SSLSTNARVDLSMRR | inactive
44 | SSMCVLCWTIVSVRNEAVEG | 1.9 ± 0.098
45 | SSNFVFNLPSTWWSYYMTWV | -0.216 ± 0.75
46 | SSNILFVIFIAY | 1.08 ± 0.21
47 | SSRSRTRWASNFLAHAYGRF | inactive
48 | SSRTTIQ | inactive

Row | Substance | amyloid nucleation score
49 | SSSSNANGFNRHYLSVRFGE | inactive
50 | SSSVKEMQQPVTTTLETQST | inactive
51 | SSVRMRISFMINGRQTA | 0.833 ± 0.15
52 | SSVWIFRWTICNWESKF | 2.45 ± 0.052
53 | SSWMYGFCVSKSSWPRL | -0.272 ± 1.4
54 | STDLVIFMSTLPVCSCYCGQ | 1.72 ± 0.08
55 | STFGVVMTSSSD | inactive
56 | STFMYVCWRPTYGSYYQTVR | inactive
57 | STGFGE | inactive
58 | STHKFNRNFIMSFAWLFICW | inactive
59 | STIFTVAVFDCNEHLARSKS | inactive
60 | STIVGGSLCFPIASVTFNSC | 2.2 ± 0.079
61 | STLASSS | inactive
62 | STLFSPR | 0.922 ± 0.14
63 | STMLSYAVWALDMVFSYKVY | -0.509 ± 0.84
64 | STNWSILFQDHSTTFFLMCA | 0.279 ± 0.2
65 | STSNFYLWGKPNVLAGMR | inactive
66 | STTFDLARWASVKSVHFCYF | inactive
67 | STTHEYDI | inactive
68 | STWLSNWYY | -0.759 ± 1.1
69 | STYLF | inactive
70 | SVEGQHYKLAVTFVDLYNSI | inactive
71 | SVFFPVEFTFRVGETLCCFF | 3.01 ± 0.062
72 | SVGLDRTSQEHSAYVGNVHS | inactive

Row | Substance | amyloid nucleation score
73 | SVGRSST | inactive
74 | SVHRLFISCKVWGFKVLWPV | inactive
75 | SVIILSCND | inactive
76 | SVIRVMSFG | inactive
77 | SVIRWFVTLWLGEHLRASDT | inactive
78 | SVIYVLYKVW | inactive
79 | SVLFMRRLYSRMA | inactive
80 | SVLGRHYVYLLSIVCGVIFG | inactive
81 | SVLMA | inactive
82 | SVMHKSRSRGFNRNDGSVRV | inactive
83 | SVRTLLVTHFLRKPLALI | inactive
84 | SVRWMTGRFVGCRRNQVQFR | 0.505 ± 0.38
85 | SVSFVDSRLLYVKICLSALG | inactive
86 | SVSLYLNLVSLVYCLVCP | 1.26 ± 0.14
87 | SVVLIMKICTVEGYDPQLLF | inactive
88 | SVYLGFIVGSVHPTHVISMR | inactive
89 | SVYPYESYLVW | inactive
90 | SVYVNAYEHNKGGFTRNIHI | inactive
91 | SWAYL | inactive
92 | SWDYSKRNCSVEKVWTELNF | inactive
93 | SWEFPTDKSYMSCREPENPM | inactive
94 | SWFALSLIIKTRVWT | inactive
95 | SWGMLSY | inactive
96 | SWIVLYRMDS | inactive

Row | Substance | amyloid nucleation score
97 | SWIVNKVF | inactive
98 | SWLFVDLYSFHFCFSNYVSY | inactive
99 | SWLKVCRQGYGDSSIRYRLL | inactive
100 | SWNRYTLRLSPSGFLVKVSL | inactive
101 | SWSARVKVLLVVGCNVSVFC | 0.842 ± 0.2
102 | SWTSEGDWHYFGYIEVVWHY | inactive
103 | SWWFCVWFQNI | 0.888 ± 0.13
104 | SWYRVNYTLPC | inactive
105 | SWYSMGNP | 1.04 ± 0.14
106 | SWYVAFFNNSGFSCMGVFVG | inactive
107 | SYCGSSASSASTLEIRYTLA | 0.875 ± 0.12
108 | SYCLYKLQLLWHDNHGFGYN | inactive
109 | SYCTYCRKAVGCHVHDEVGG | inactive
110 | SYDVKSSTLW | inactive
111 | SYEGMTREPLYMVYMRGSTD | 1.16 ± 0.16
112 | SYFVALMSLRYMESTYWR | inactive
113 | SYFVLVWRETDFKHCLKGNF | inactive
114 | SYGSLM | 0.198 ± 0.27
115 | SYISQEFYDFCFKPYLGSLY | inactive
116 | SYLIGIWGFWINGIVFAVCA | inactive
117 | SYLNVLPNFLRLTAICVVFR | inactive
118 | SYLYVTKYVLFDR | inactive
119 | SYMITLLKVIILSWHTYAVM | inactive
120 | SYMLWYSS | inactive

Row | Substance | amyloid nucleation score
121 | SYMQMTELKEAP | inactive
122 | SYNRAA | inactive
123 | SYNSVRW | inactive
124 | SYRKEYYKLGHYSRRMQATS | inactive
125 | SYTFVCRPTFYVCFCGSMCF | 2.45 ± 0.065
126 | SYYISMVYTVMSMNASFSRS | inactive
127 | SYYLITDS | inactive
128 | TAESEMNQCVLSRYFSSAIR | inactive
129 | TAESTDCG | inactive
130 | TAFTMGV | inactive
131 | TAGNWWNVCVNTFNRWRRLL | inactive
132 | TAKGVKSDLECGCNVFRTEC | 0.457 ± 0.15
133 | TANCLVCVTCSGLMRTT | 2.82 ± 0.054
134 | TATWSFNVT | inactive
135 | TAYSLMSIVFGWQPPKCGYE | 0.648 ± 0.2
136 | TCCNQRFGVRWNIYYGSDVW | 0.742 ± 0.15
137 | TCDIRCCTASPLYNRVM | 0.129 ± 0.47
138 | TCEWLSNYFKDLFIMVLSIS | inactive
139 | TCLLIYFMFHGEVMPLWSI | inactive
140 | TCLLMSPVFMVYFLLKTMNS | inactive
141 | TCLRG | inactive
142 | TCSKVFQYG | inactive
143 | TCTCKVRLYCTMARSPFIMG | inactive
144 | TCTSQMLVWYFFPFLINMSW | inactive

Row | Substance | amyloid nucleation score
145 | TCVIKGGCCGLN | -0.955 ± 2.5
146 | TDCELGLLRL | inactive
147 | TDETSGRSLGVVWEHHAMNH | inactive
148 | TDRVCTPSVSDILVRWNNSQ | inactive
149 | TDSNYNFNC | 0.214 ± 0.34
150 | TDVSHGNLHGVSSWSGVPAD | inactive
151 | TDYMLVWSQYRLIHFCNLVV | inactive
152 | TEGRVQMWRINALRECTGSS | inactive
153 | TFCLFRS | -0.343 ± 0.63
154 | TFGWINVAYSYSFSICGCTG | 2.62 ± 0.051
155 | TFKHTFNNVHCSGAFTGSQL | 0.161 ± 0.25
156 | TFKMQWECVIA | 0.657 ± 0.16
157 | TFLNSNFFPIWLVVCASA | inactive
158 | TFRLKGALRKVVW | inactive
159 | TFRWFDGIKTLMMD | inactive
160 | TFSGVCIVIAYCGVFNILEG | 1.94 ± 0.097
161 | TFVKSLVGGFTRNLVFLAIL | inactive
162 | TFWLH | 0.156 ± 0.88
163 | TFWYLFCDDDS | inactive
